Source: the supplement of paper PMC7877785
± gives the uncertainty stated by the source.

Assay: self-splicing fitness, log relative to wild type (ln ratio); higher = more splicing; Tetrahymena group I intron in knt gene, E. coli kanamycin selection, DiMSum; sequences stand for … in CUCUCU…GGAGGGAAAAGUUAUCAGGCAUGCACCUGGUAGCUAGUCUUUAAACCAAUAGAUUGCAUCGGUUUAAAAGGCAAGACCGUCAAAUUGCGGGAAAGGGGUCAACAGCCGUUCAGUACCAAGUCUCAGGGGAAACUUUGAGAUGGCCUUGCAAAGGGUAUGGUAAUAAGCUGACGGACAUGGUCCUAACCACGCAGCCAAGUCCUAAGUCAACAGAUCUUCUGUUGAUAUGGAUGCAGUUCACAGACUAAAUGUCGGUCGGGGAAGAUGUAUUCUUCUCAUAAGAUAUAGUCGGACCUCUCCUUAAUGGGAGCUAGCGGAUGAAGUGAUGCAACACUGGAGCCGCUGGGAACUAAUUUGUAUGCGAAAGUAUAUUGAUUAGUUUUGGAGUACUCGUGGUCG
In short: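 A randomised library covering all eight P1ex-region intron nucleotides was built with the intron in the knt kanamycin-resistance gene on pET-22b(+) and held in E. coli BL21(DE3). Cells were grown overnight at 37°C or 30°C on LB agar, with or without 25 μg/mL kanamycin, plus 100 μg/mL carbenicillin, 50 μM IPTG and 0.2% rhamnose, and pooled colonies were amplicon-sequenced on an Illumina HiSeq 2500. DiMSum fitness is the error-weighted combination of wild-type-normalised replicate fold changes, kanamycin versus none.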

| Sequence | self-splicing fitness (ln) (30 °C) | self-splicing fitness (ln) (37 °C) |
| --- | --- | --- |
| CCUUAGCAAUAUUACGAAUA | -2.52 ± 0.27 | -2.21 ± 0.5 |
| AGGAAGCAAUAUUACGACGG | -1.98 ± 0.17 | -0.95 ± 0.23 |
| AAUUAGCAAUAUUACGUUAA | -1.19 ± 0.12 | -0.801 ± 0.17 |
| UUGGAGCAAUAUUACGUGCC | -3.24 ± 0.32 | -2.74 ± 0.36 |
| UUUGAGCAAUAUUACGCCUG | -2.85 ± 0.27 | -1.21 ± 0.38 |
| UAACAGCAAUAUUACGACUA | -0.142 ± 0.049 | -0.212 ± 0.057 |
| GACAAGCAAUAUUACGGUCG | -1.22 ± 0.076 | -0.0208 ± 0.09 |
| CGGGAGCAAUAUUACGGCAG | -2.71 ± 0.21 | -1.12 ± 0.26 |
| CUUUAGCAAUAUUACGGGGC | -3.44 ± 0.28 | -2.54 ± 0.38 |
| AUCUAGCAAUAUUACGCCUA | -1.09 ± 0.16 | -0.389 ± 0.16 |
| UUGUAGCAAUAUUACGGUUU | -3.53 ± 0.24 | -1.79 ± 0.17 |
| GAGAAGCAAUAUUACGUGCC | -0.556 ± 0.11 | -0.064 ± 0.11 |
| CAGCAGCAAUAUUACGGCUA | -0.235 ± 0.088 | 0.311 ± 0.13 |
| UGGAAGCAAUAUUACGAGCA | -0.526 ± 0.082 | 0.193 ± 0.1 |
| UCAAAGCAAUAUUACGCAAG | -2.18 ± 0.14 | -1.48 ± 0.15 |
| ACAUAGCAAUAUUACGUAUA | -3.09 ± 0.22 | -1.78 ± 0.21 |
| CUGUAGCAAUAUUACGCAUG | -1.06 ± 0.1 | -0.55 ± 0.13 |
| GCAGAGCAAUAUUACGUAUA | -1.41 ± 0.22 | -2.76 ± 0.47 |
| CCGUAGCAAUAUUACGGCCA |  | -2.19 ± 0.35 |
| CAGUAGCAAUAUUACGAUCG | 0.0663 ± 0.15 | 0.475 ± 0.17 |
| AACAAGCAAUAUUACGCUCG | -0.882 ± 0.11 | -0.282 ± 0.11 |
| AUAGAGCAAUAUUACGGACG | -2.69 ± 0.22 | -0.981 ± 0.19 |
| UAGUAGCAAUAUUACGCCCU | -1.34 ± 0.21 | -0.583 ± 0.2 |
| GAACAGCAAUAUUACGAGCA | -1.01 ± 0.1 | -0.521 ± 0.1 |
| AGUGAGCAAUAUUACGCCUG | -3.85 ± 0.29 | -2.38 ± 0.29 |

| Sequence | self-splicing fitness (ln) (30 °C) | self-splicing fitness (ln) (37 °C) |
| --- | --- | --- |
| GUAUAGCAAUAUUACGUCGA | -2.2 ± 0.29 | -1.03 ± 0.2 |
| GACGAGCAAUAUUACGCGUA | -1.82 ± 0.12 | -1.95 ± 0.098 |
| UUAUAGCAAUAUUACGGCAU | -2.47 ± 0.18 | -2.3 ± 0.25 |
| CUACAGCAAUAUUACGCUCC | -3.45 ± 0.24 | -2.11 ± 0.32 |
| UAUAAGCAAUAUUACGCUGU | -2.45 ± 0.2 | -3.32 ± 0.35 |
| UUGAAGCAAUAUUACGCCCA | 0.429 ± 0.12 | 0.296 ± 0.16 |
| ACGUAGCAAUAUUACGAUAU | -1.39 ± 0.1 | -1.04 ± 0.15 |
| AAAUAGCAAUAUUACGAACC | -1.91 ± 0.33 | 1.21 ± 0.28 |
| GGAGAGCAAUAUUACGUAUU | -4.02 ± 0.31 | -1.22 ± 0.16 |
| ACGAAGCAAUAUUACGAGGA | -3.29 ± 0.44 | -2 ± 0.29 |
| GUGUAGCAAUAUUACGAUUC | 0.325 ± 0.094 | -0.738 ± 0.088 |
| GCUGAGCAAUAUUACGGGCG | -1.83 ± 0.14 | 0.15 ± 0.15 |
| UCAUAGCAAUAUUACGAGAG | -2.96 ± 0.24 | -2.44 ± 0.22 |
| GUGAAGCAAUAUUACGCCCC | -0.362 ± 0.33 |  |
| ACUCAGCAAUAUUACGCGAG | -2.93 ± 0.2 | -1.21 ± 0.17 |
| ACAAAGCAAUAUUACGGAAA | -2.26 ± 0.18 | -1.7 ± 0.21 |
| GCCAAGCAAUAUUACGAGAA | -2.69 ± 0.4 | -0.69 ± 0.35 |
| ACGGAGCAAUAUUACGGGCA | -2.06 ± 0.42 |  |
| CGCCAGCAAUAUUACGGUAU | -2.65 ± 0.088 | -0.699 ± 0.1 |
| AUUCAGCAAUAUUACGGGUG | -1.71 ± 0.077 | -0.135 ± 0.086 |
| UCGAAGCAAUAUUACGCGGA | -3.61 ± 0.39 | -1.35 ± 0.17 |
| UUGUAGCAAUAUUACGAAUU | -1.53 ± 0.34 | -1.47 ± 0.38 |
| GCUUAGCAAUAUUACGCAAC | -2.43 ± 0.22 | -0.318 ± 0.13 |
| AGAAAGCAAUAUUACGAGCG | -1.21 ± 0.095 | -0.574 ± 0.13 |
| UUUGAGCAAUAUUACGCUUU |  | -1.59 ± 0.22 |

| Sequence | self-splicing fitness (ln) (30 °C) | self-splicing fitness (ln) (37 °C) |
| --- | --- | --- |
| UCGUAGCAAUAUUACGGUUG | -2.14 ± 0.12 | -1.05 ± 0.15 |
| CGCCAGCAAUAUUACGUCUC | -4.51 ± 0.23 | -2.45 ± 0.16 |
| CUAGAGCAAUAUUACGCGGU | -1.42 ± 0.092 | -0.641 ± 0.13 |
| CAUUAGCAAUAUUACGGGAC | -3.64 ± 0.27 | -2.31 ± 0.25 |
| GAUUAGCAAUAUUACGCCAA | -3.48 ± 0.31 | -1.91 ± 0.25 |
| GCUCAGCAAUAUUACGAGUG | -1.21 ± 0.063 | -0.148 ± 0.092 |
| UACUAGCAAUAUUACGUUGA | -3.37 ± 0.17 | -0.894 ± 0.12 |
| GGUGAGCAAUAUUACGUGCG | -0.62 ± 0.12 | -0.505 ± 0.18 |
| UAGUAGCAAUAUUACGCAGA | -2.43 ± 0.23 | -2.99 ± 0.18 |
| CCAAAGCAAUAUUACGGUGG | -4.1 ± 0.19 | -1.76 ± 0.16 |
| CACCAGCAAUAUUACGGUGC | -3.89 ± 0.21 | -1.81 ± 0.15 |
| UUGGAGCAAUAUUACGCCAG | -3.07 ± 0.26 | -2.07 ± 0.37 |
| CCUGAGCAAUAUUACGGUCU |  | -3.78 ± 0.42 |
| CUUCAGCAAUAUUACGGGUC | -3.39 ± 0.28 | -0.947 ± 0.25 |
| AAUUAGCAAUAUUACGAGUC |  | -1.9 ± 0.36 |
| GAGGAGCAAUAUUACGAUGA | -2.31 ± 0.24 | -1.42 ± 0.35 |
| CACUAGCAAUAUUACGGAAA | -1.99 ± 0.42 | -1.42 ± 0.5 |
| GUGAAGCAAUAUUACGACUG | -1.37 ± 0.09 | -0.924 ± 0.14 |
| UGACAGCAAUAUUACGGGUU | -4.59 ± 0.41 | -2.79 ± 0.2 |
| AUCAAGCAAUAUUACGUGAC | -2.04 ± 0.12 | -1.07 ± 0.11 |
| UCUUAGCAAUAUUACGGGAU | -3.65 ± 0.33 | -2.65 ± 0.36 |
| ACUAAGCAAUAUUACGCGAU | -2.98 ± 0.15 | -1.82 ± 0.2 |
| GUCUAGCAAUAUUACGUAAC | -0.708 ± 0.13 | -0.195 ± 0.13 |
| CGGUAGCAAUAUUACGGGGA | -2.53 ± 0.24 | -3.03 ± 0.47 |
| UCCGAGCAAUAUUACGAGAU | -3.41 ± 0.24 | -2.02 ± 0.29 |

| Sequence | self-splicing fitness (ln) (30 °C) | self-splicing fitness (ln) (37 °C) |
| --- | --- | --- |
| UAUAAGCAAUAUUACGCCAG | -0.478 ± 0.21 | -0.728 ± 0.27 |
| UAAUAGCAAUAUUACGUGGA | -2.97 ± 0.23 | -2.33 ± 0.24 |
| CAGCAGCAAUAUUACGGUAU | -3.51 ± 0.15 | -2.62 ± 0.13 |
| AACUAGCAAUAUUACGGCGU | -0.717 ± 0.072 | 0.0758 ± 0.085 |
| GUCAAGCAAUAUUACGACUU | -3.18 ± 0.099 | -1.86 ± 0.1 |
| GUUGAGCAAUAUUACGUCAA | -2.76 ± 0.28 |  |
| AACUAGCAAUAUUACGAGGC | -3.35 ± 0.2 | -2.62 ± 0.35 |
| GAUCAGCAAUAUUACGCACG | -0.77 ± 0.076 | 0.0829 ± 0.077 |
| AGGUAGCAAUAUUACGAAUU | -1.85 ± 0.017 | -0.996 ± 0.035 |
| CGCAAGCAAUAUUACGAGUG | -1.99 ± 0.057 | -1.72 ± 0.084 |
| CAUCAGCAAUAUUACGUCUU | -3.53 ± 0.14 | -2.19 ± 0.12 |
| CAGUAGCAAUAUUACGUUCU |  | -1.41 ± 0.2 |
| AAUGAGCAAUAUUACGACCU | -0.757 ± 0.24 | -0.257 ± 0.41 |
| CAAUAGCAAUAUUACGCACU | -2.14 ± 0.12 | -1.82 ± 0.17 |
| ACAGAGCAAUAUUACGCGUG | -1.81 ± 0.081 | -1.87 ± 0.1 |
| AGGUAGCAAUAUUACGGCGC | -0.0707 ± 0.015 | 0.163 ± 0.033 |
| GGCAAGCAAUAUUACGCCCU | -2.53 ± 0.26 | -0.495 ± 0.19 |
| UAAUAGCAAUAUUACGGCAA | -1.99 ± 0.14 | -0.69 ± 0.12 |
| CUUCAGCAAUAUUACGGGGU | -3.95 ± 0.2 | -2.45 ± 0.25 |
| AUUUAGCAAUAUUACGAGCU | -1.88 ± 0.17 | -0.00846 ± 0.15 |
| GGAUAGCAAUAUUACGUCUU | -0.966 ± 0.096 | 0.126 ± 0.11 |
| CUCUAGCAAUAUUACGGCGC | -2.53 ± 0.28 | -3.04 ± 0.43 |
